Literature values in PMC3403913.

Biological target: factor Va (Homo sapiens) (UniProt P12259)
UniProt P12259, sequence (P12259 29-737, chain 1 of 2): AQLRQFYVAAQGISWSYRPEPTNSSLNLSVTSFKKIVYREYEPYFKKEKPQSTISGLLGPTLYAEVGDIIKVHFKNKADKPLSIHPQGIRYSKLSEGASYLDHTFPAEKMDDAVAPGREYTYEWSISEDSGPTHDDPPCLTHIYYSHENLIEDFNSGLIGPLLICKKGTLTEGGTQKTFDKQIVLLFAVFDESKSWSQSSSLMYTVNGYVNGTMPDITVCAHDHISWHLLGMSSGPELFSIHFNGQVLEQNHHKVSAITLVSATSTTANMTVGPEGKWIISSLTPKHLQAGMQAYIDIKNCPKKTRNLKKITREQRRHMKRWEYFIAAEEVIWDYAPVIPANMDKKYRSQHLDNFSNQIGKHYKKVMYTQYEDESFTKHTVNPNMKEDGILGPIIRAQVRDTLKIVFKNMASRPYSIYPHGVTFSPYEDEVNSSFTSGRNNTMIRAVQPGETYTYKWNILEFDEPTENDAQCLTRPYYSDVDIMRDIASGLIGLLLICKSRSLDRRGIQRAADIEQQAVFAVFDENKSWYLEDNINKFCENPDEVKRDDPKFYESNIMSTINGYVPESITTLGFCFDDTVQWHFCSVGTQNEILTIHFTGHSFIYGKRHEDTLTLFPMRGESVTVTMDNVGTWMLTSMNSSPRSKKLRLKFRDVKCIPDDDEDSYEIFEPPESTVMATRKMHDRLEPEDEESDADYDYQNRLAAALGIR
UniProt P12259, sequence (P12259 1574-2224, chain 2 of 2): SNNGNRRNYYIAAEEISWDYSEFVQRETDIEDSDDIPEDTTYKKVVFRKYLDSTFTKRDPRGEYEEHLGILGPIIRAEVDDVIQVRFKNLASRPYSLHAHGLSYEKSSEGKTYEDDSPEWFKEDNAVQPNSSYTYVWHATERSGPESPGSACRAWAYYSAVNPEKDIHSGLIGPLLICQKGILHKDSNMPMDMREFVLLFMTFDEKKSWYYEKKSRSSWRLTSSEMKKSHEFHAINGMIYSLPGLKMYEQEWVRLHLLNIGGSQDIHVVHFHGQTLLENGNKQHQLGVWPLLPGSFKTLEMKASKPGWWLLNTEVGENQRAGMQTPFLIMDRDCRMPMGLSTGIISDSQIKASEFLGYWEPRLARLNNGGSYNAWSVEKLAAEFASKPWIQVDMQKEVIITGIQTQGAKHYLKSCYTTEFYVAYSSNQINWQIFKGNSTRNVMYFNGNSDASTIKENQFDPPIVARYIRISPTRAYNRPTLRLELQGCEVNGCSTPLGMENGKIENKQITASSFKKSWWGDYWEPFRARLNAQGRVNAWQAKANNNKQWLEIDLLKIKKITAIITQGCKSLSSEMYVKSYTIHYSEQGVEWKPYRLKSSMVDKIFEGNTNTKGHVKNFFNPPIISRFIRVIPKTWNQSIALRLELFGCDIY

Kd: 0.5 nM
Substance: factor Xa (from UniProt P00742)
